The values that follow come from article PMC10549240 (RSC Chemical Biology, 2023).

*: point of attachment. Biotin = O=C1N[C@H]2[C@H](CS[C@H]2CCCCC(=O)*)N1; AEEA = NCCOCCOCC(=O)O

The labels stand for the following.
B3: Bio-PepK-StA (peptide)
peptide: {Biotin-AEEA}-KIAALKEKIAALKEKIAALKE-NH2
SMILES: CC[C@H](C)[C@H](NC(=O)[C@H](CCCCN)NC(=O)COCCOCCNC(=O)CCCC[C@@H]1SC[C@@H]2NC(=O)N[C@@H]21)C(=O)N[C@@H](C)C(=O)N[C@@H](C)C(=O)N[C@@H](CC(C)C)C(=O)N[C@@H](CCCCN)C(=O)N[C@@H](CCC(=O)O)C(=O)N[C@@H](CCCCN)C(=O)N[C@H](C(=O)N[C@@H](C)C(=O)N[C@@H](C)C(=O)N[C@@H](CC(C)C)C(=O)N[C@@H](CCCCN)C(=O)N[C@@H](CCC(=O)O)C(=O)N[C@@H](CCCCN)C(=O)N[C@H](C(=O)N[C@@H](C)C(=O)N[C@@H](C)C(=O)N[C@@H](CC(C)C)C(=O)N[C@@H](CCCCN)C(=O)N[C@@H](CCC(=O)O)C(N)=O)[C@@H](C)CC)[C@@H](C)CC

The target of the experiment “Bio-PepK-StA” is B3. Put plainly: fluorescence polarisation. A general note: In fluorescence polarisation assays a small probe gives low polarisation when free and higher when bound to something large.
The target of the next experiment is activated PepE-Bio (N-terminal acetyl; C-terminal Aoa-Aoa-Lys(biotin)-NH2; glutamate side chains activated with EDC/NHS (NHS esters)). Put plainly: cross-linking.
Another experiment addresses Fluo-PepE (fluorescein (5(6)-carboxyfluorescein)-Aoa (8-amino-3,6-dioxa-octanoic acid) on the N-terminus; C-terminal amide). As to the kind of experiment: fluorescence polarisation.

B1: PepE(-4C) (peptide)
peptide: {fluorescein-AEEA}-EIAALEREIAALEREIA-NH2
For the molecule B1, the “fold drop in affinity against full-length PepE” value (shortened to “fold drop in affinity”) with Bio-PepK-StA is around 40 fold.

B2: Bio-PepK (peptide)
peptide: {Biotin-AEEA}-KIAALKEKIAALKEKIAALKE-NH2
SMILES: CC[C@H](C)[C@H](NC(=O)[C@H](CCCCN)NC(=O)COCCOCCNC(=O)CCCC[C@@H]1SC[C@@H]2NC(=O)N[C@@H]21)C(=O)N[C@@H](C)C(=O)N[C@@H](C)C(=O)N[C@@H](CC(C)C)C(=O)N[C@@H](CCCCN)C(=O)N[C@@H](CCC(=O)O)C(=O)N[C@@H](CCCCN)C(=O)N[C@H](C(=O)N[C@@H](C)C(=O)N[C@@H](C)C(=O)N[C@@H](CC(C)C)C(=O)N[C@@H](CCCCN)C(=O)N[C@@H](CCC(=O)O)C(=O)N[C@@H](CCCCN)C(=O)N[C@H](C(=O)N[C@@H](C)C(=O)N[C@@H](C)C(=O)N[C@@H](CC(C)C)C(=O)N[C@@H](CCCCN)C(=O)N[C@@H](CCC(=O)O)C(N)=O)[C@@H](C)CC)[C@@H](C)CC
Take B2: the binding result in the experiment with activated PepE-Bio is reported as “binds”. Regarding B3, the binding result with Fluo-PepE is given as “binds”.

B4: PepE(-1C) (peptide)
peptide: {fluorescein-AEEA}-EIAALEREIAALEREIAALE-NH2
Consider B4, for which the binding result with Bio-PepK-StA is recorded as “binds”.

B5: PepE(-3C) (peptide)
peptide: {fluorescein-AEEA}-EIAALEREIAALEREIAA-NH2
With B5, the “fold drop in affinity” value with Bio-PepK-StA is around 40 fold.

B6: PepE(-5C) (peptide)
peptide: {fluorescein-AEEA}-EIAALEREIAALEREI-NH2
As for B6, the “fold drop in affinity” value with Bio-PepK-StA was around 40 fold.

B7: PepE(-2C) (peptide)
peptide: {fluorescein-AEEA}-EIAALEREIAALEREIAAL-NH2
On to B7, for which the binding result with Bio-PepK-StA is given as “binds”.
